Source: the supplement of paper PMC12667976
± gives the standard error.

B1: library; numbered along this chain (parent)
chain: MATDAALRRLLRLHRTEIAVAVDSAFPLLHALADHDVVPEDKFQETLHLKEKEGCPQAFHALLSWLLTQDSTAILDFWRVLFKDYNLERYGRLQPILDSFPKDVDLSQPRKGRKPPAVPKALVPPPRLPTKRKASEEARAAAPAALTPRGTASPGSQLKAKPPKKPESSAEQQRLPLGNGIQTMSASVQRAVAMSSGDVPGARGAVEGILIQQVFESGGSKKCIQVGGEFYTPSKFEDSGSGKNKARSSSGPKPLVRAKGAQGAAPGGGEARLGQQGSVPAPLALPSDPQLHQKNEDECAVCRDGGELICCDGCPRAFHLACLSPPLREIPSGTWRCSSCLQATVQEVQPRAEEPRPQEPPVETPLPPGLRSAGEEVRGPPGEPLAGMDTTLVYKHLPAPPSAAPLPGLDSSALHPLLCVGPEGQQNLAPGARCGVCGDGTDVLRCTHCAAAFHWRCHFPAGTSRPGTGLRCRSCSGDVTPAPVEGVLAPSPARLAPGPAKDDTASHEPALHRDDLESLLSEHTFDGILQWAIQSMARPAAPFPS

Variants of: B1
Assay: AIRE transcriptional activation functional score (insulin promoter-GFP; nonsense median 0, synonymous median 1) (normalised score); higher = higher AIRE activity (more reporter activation)
Conditions: with insulin promoter-GFP reporter in HEK293
Description: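 Deep mutational scan of full-length human AIRE (codon-optimized cDNA, DT-POPCode NNN libraries over three regions) integrated at a Bxb1 landing pad in HEK293 cells carrying an insulin core promoter-GFP reporter at a Flp-In site. Cells were sorted for the top 10% GFP about 14 days after transfection. Variant frequency log-ratios (select vs non-select, TileSeq) were rescaled so that the nonsense median is 0 and the synonymous median is 1, then averaged over biological replicates.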

Variant	AIRE transcriptional activation functional score
Y90S	-0.169 ± 0.5
V420W	1.35 ± 0.026
R473D	0.836 ± 0.06
T468W	1.29 ± 0.042
H512M	0.439 ± 0.028
E51S	-0.885 ± 0.57
E51D	0.852 ± 0.23
G150K	1.53 ± 0.12
Q425R	0.94 ± 0.15
R127F	0.897 ± 0.11
G228V	0.421 ± 0.28
Y394T	0.126 ± 0.099
L327I	0.913 ± 0.27
G333S	0.365 ± 0.58
V80A	-0.0867 ± 0.36
P326N	0.815 ± 0.84
S168E	0.606 ± 0.34
R371M	-0.128 ± 0.13
C449Y	0.106 ± 0.096
A404F	1.26 ± 0.26
P143D	1.01 ± 0.31

Variant	AIRE transcriptional activation functional score
P401K	1.55 ± 0.13
L385Q	1.24 ± 0.032
L385W	1.56 ± 0.041
L63W	0.381 ± 0.093
P368I	1.29 ± 0.21
P368K	1.38 ± 0.13
C299T	0.711 ± 0.31
C299F	0.664 ± 0.29
C299A	0.615 ± 0.18
C299S	0.703 ± 0.26
L75T	1.46 ± 0.32
L75D	-0.0941 ± 0.23
A493R	1.15 ± 0.12
A493Q	0.91 ± 0.25
L409S	1.23 ± 0.38
G477M	1.01 ± 0.059
P286Q	1.07 ± 0.083
P56H	0.985 ± 0.52
P56D	-0.102 ± 0.4
G387C	0.799 ± 0.25
G387A	1.19 ± 0.31

Variant	AIRE transcriptional activation functional score
L397T	0.852 ± 0.14
A343C	0.944 ± 0.16
G379A	0.877 ± 0.073
P39A	-0.568 ± 0.77
S411V	1.06 ± 0.29
V362S	1.07 ± 0.23
V362E	1.07 ± 0.17
V214A	0.717 ± 0.19
L511Y	1.19 ± 0.072
A58Y	-0.204 ± 0.2
A58R	0.31 ± 0.42
H396K	1.61 ± 0.096
A152S	0.715 ± 0.46
A152C	0.402 ± 0.25
P361I	1.09 ± 0.13
C437K	0.35 ± 0.19
C437G	0.0855 ± 0.11
P331T	0.972 ± 0.2
P331M	1.35 ± 0.1
E229W	-0.162 ± 0.12
A321Y	0.541 ± 0.22

Variant	AIRE transcriptional activation functional score
R203L	1.1 ± 0.35
P481C	0.688 ± 0.32
P481V	1.38 ± 0.086
P481L	0.8 ± 0.19
E508R	0.154 ± 0.21
P266S	0.824 ± 0.22
H48T	0.372 ± 0.13
T68H	0.424 ± 0.27
A205Q	0.529 ± 0.048
A202F	0.397 ± 0.12
A21M	0.432 ± 0.19
Q182S	1.05 ± 0.52
L158Y	1.07 ± 0.39
A258F	1.19 ± 0.16
A258E	1.13 ± 0.18
A144P	1.65 ± 0.43
F100D	-0.111 ± 0.43
F100I	0.0995 ± 0.63
F100H	0.644 ± 0.11
F100N	1.13 ± 0.16
